In US20160289698A1 (TRUSTEES OF DARTMOUTH COLLEGE, published 2016):

Experiments:
KISS ME DEADLY 1 (KMD1) [1] = target: T1, KISS ME DEADLY 1 (KMD1) (Arabidopsis, UniProt Q9M8L2 1-354); assay: BiFC (YFP^N/YFP^C fusions) in Arabidopsis protoplasts
T1 construct: Full-length protein; also called At1g80440
T1 sequence (looked up): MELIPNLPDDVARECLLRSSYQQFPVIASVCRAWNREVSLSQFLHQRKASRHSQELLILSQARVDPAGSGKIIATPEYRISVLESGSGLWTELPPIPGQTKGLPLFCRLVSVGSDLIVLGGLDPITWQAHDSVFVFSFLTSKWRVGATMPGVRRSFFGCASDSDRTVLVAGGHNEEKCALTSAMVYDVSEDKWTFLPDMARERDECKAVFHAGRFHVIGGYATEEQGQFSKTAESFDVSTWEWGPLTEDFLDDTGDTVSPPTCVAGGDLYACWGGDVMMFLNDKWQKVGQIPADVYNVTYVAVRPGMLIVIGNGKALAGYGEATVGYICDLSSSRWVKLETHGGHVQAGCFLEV
Protocol: (§1) Arabidopsis protoplasts were transfected as described (Kovtun, et al. (2000) Proc. Natl. Acad. Sci. USA 97(6):2940-2945) and incubated overnight at 22° C. under dim light (5 […]) and examined with an Axioplan2 fluorescent microscope (Carl Zeiss).
(§2) KMD proteins contain a conserved amino-terminal F-box motif. To determine if KMDs function as canonical F-box proteins, their interactions with known components of the Arabidopsis SCF complex were examined.

KISS ME DEADLY 3 (KMD3) [2] = target: T2, KISS ME DEADLY 3 (KMD3) (Arabidopsis, UniProt O80582 1-409); assay: as above
T2 construct: Full-length protein; LexA fusion in yeast two-hybrid, YFP^N or YFP^C fusion in BiFC; also called At2g44130
T2 sequence (looked up): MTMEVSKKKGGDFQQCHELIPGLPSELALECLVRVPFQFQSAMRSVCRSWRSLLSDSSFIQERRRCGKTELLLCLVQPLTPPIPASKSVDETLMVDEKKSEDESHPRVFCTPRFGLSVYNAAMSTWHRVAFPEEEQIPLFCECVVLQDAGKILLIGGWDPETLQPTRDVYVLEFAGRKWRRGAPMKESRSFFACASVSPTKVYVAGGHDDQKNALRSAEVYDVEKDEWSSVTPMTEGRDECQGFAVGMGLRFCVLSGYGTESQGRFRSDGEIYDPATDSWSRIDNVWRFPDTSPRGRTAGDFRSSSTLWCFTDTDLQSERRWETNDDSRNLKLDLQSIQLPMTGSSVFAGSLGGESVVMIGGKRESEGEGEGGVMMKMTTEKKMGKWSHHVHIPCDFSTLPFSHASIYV
Protocol: as §1, §2

KISS ME DEADLY 2 (KMD2) [3] = target: T3, KISS ME DEADLY 2 (KMD2) (Arabidopsis, UniProt Q9LMR5 1-359); assay: as above
T3 construct: Full-length protein; LexA fusion in yeast two-hybrid, YFP^N or YFP^C fusion in BiFC; also called At1g15670
T3 sequence (looked up): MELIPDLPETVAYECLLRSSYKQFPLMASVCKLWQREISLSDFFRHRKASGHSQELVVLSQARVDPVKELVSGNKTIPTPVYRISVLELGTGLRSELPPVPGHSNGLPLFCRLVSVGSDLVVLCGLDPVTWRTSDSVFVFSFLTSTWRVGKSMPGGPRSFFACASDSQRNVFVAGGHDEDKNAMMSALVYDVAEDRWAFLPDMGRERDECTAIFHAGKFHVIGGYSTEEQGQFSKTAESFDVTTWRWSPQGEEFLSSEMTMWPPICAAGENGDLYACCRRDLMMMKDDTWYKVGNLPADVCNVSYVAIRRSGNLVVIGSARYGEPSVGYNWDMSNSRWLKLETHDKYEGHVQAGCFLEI
Protocol: as §1, §2

KISS ME DEADLY 4 (KMD4) [4] = target: T4, KISS ME DEADLY 4 (KMD4) (Arabidopsis, UniProt Q9M1Y1 1-418); assay: as above
T4 construct: Full-length protein; LexA fusion in yeast two-hybrid, YFP^N or YFP^C fusion in BiFC; also called At3g59940
T4 sequence (looked up): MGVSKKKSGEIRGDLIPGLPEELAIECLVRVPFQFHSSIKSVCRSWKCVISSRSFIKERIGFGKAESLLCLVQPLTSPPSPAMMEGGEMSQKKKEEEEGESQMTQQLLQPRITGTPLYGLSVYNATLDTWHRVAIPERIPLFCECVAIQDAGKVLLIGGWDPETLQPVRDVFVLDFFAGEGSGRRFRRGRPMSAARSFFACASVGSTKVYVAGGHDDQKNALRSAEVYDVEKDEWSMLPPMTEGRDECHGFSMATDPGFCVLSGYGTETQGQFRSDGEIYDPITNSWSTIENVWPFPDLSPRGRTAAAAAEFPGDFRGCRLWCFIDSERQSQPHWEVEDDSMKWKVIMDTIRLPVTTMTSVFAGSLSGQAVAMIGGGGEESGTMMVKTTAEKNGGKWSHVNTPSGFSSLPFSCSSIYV
Protocol: as §1, §2

KISS ME DEADLY 1 (KMD1) [5] = target: T1, KISS ME DEADLY 1 (KMD1); assay: BiFC with ARR fragments; the weaker of the two interactions
ARR12 [6] = target: T5, ARR12 (Arabidopsis, UniProt P62598 1-596); assay: yeast two-hybrid
T5 construct: YFP^N or YFP^C fusion of the full-length cDNA in BiFC; also called AtARR12; type-B response regulator AtARR12
T5 sequence (looked up): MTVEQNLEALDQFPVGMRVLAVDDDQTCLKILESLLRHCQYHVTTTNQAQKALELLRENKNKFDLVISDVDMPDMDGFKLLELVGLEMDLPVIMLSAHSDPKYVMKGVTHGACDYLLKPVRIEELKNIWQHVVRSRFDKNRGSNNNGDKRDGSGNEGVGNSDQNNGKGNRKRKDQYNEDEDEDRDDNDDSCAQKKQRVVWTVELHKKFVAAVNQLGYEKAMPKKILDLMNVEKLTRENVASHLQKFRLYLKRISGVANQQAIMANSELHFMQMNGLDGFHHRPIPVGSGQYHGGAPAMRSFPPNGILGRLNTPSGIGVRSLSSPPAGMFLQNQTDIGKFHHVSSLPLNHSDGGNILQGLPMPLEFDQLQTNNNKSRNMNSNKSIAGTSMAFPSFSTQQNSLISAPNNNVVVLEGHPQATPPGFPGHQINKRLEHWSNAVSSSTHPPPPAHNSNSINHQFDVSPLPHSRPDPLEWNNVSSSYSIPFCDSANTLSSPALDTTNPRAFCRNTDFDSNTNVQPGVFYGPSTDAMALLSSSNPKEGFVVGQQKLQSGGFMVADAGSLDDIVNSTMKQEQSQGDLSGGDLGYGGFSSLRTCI

ARR12 [7] = target: T5, ARR12; assay: yeast two-hybrid, positive control
KISS ME DEADLY 1 (KMD1) [8] = target: T1, KISS ME DEADLY 1 (KMD1); assay: yeast two-hybrid (LexA-KMD bait, X-gal)
From the text: (§3) The DUPLEX-A™ system (OriGene Technologies) was used for yeast two-hybrid analysis of interactions. KMD cDNAs were cloned into the pGilda bait vector, which produces an in-frame fusion with the LexA DNA-binding domain. Type-B ARR coding sequences were cloned into the pJG4-5 prey vector, which produces a B42 activation domain. The yeast strain EGY48 (MATa, trp1, his3, ura3, leu2::6 LexAop-LEU2) that contains the lacZ reporter plasmid pSH18-34 was transformed with the appropriate “bait” and “prey” plasmids. Interactions were tested on 5-bromo-4-chloro-3-indolyl-p-D-galactopyranoside (X-gal) medium (Ryu, et al. (2005) Cell 120(3): 395-406).
(§4) The KMD proteins also interacted with ARR20 (type-B ARR subfamily-3), but not with ARR19 (subfamily-2) and ARR21 (subfamily-3). […] All four KMD proteins interacted with both ARR1 and ARR12 in a BiFC assay. Strong fluorescence was detected in the nuclei of cells, consistent with the subcellular localization of the type-B ARRs (Hwang & Sheen J (2001) Nature 413(6854):383-389; Mason, et al. (2004) Plant Physiol. 135(2):927-937).

KISS ME DEADLY 3 (KMD3) [9] = target: T2, KISS ME DEADLY 3 (KMD3); assay: yeast two-hybrid (LexA-KMD bait, X-gal)
From the text: as §3, §4

KISS ME DEADLY 2 (KMD2) [10] = target: T3, KISS ME DEADLY 2 (KMD2); assay: yeast two-hybrid (LexA-KMD bait, X-gal)
From the text: as §3, §4

KISS ME DEADLY 4 (KMD4) [11] = target: T4, KISS ME DEADLY 4 (KMD4); assay: yeast two-hybrid (LexA-KMD bait, X-gal)
From the text: as §3, §4

KISS ME DEADLY 3 (KMD3) [12] = target: T2, KISS ME DEADLY 3 (KMD3); assay: yeast two-hybrid (LexA-KMD bait, B42-ARR prey, X-gal)
From the text: as §3, §4

KISS ME DEADLY 4 (KMD4) [13] = target: T4, KISS ME DEADLY 4 (KMD4); assay: as above
From the text: as §3, §4

B1: ASK1, an Arabidopsis Skp1 protein of the SCF complex (other, UniProt Q39255 1-160, looked up)
chain: MSAKKIVLKSSDGESFEVEEAVALESQTIAHMVEDDCVDNGVPLPNVTSKILAKVIEYCKRHVEAAASKAEAVEGAATSDDDLKAWDADFMKIDQATLFELILAANYLNIKNLLDLTCQTVADMIKGKTPEEIRTTFNIKNDFTPEEEEEVRRENQWAFE
notes: Full-length cDNA fused to YFP^N or YFP^C for BiFC
binding result (KISS ME DEADLY 1 (KMD1) [1]): binds
binding result (KISS ME DEADLY 3 (KMD3) [2]): binds
binding result (KISS ME DEADLY 2 (KMD2) [3]): binds
binding result (KISS ME DEADLY 4 (KMD4) [4]): binds

B2: ARR12 (1-134) (other, Arabidopsis, UniProt P62598 1-134, looked up)
chain: MTVEQNLEALDQFPVGMRVLAVDDDQTCLKILESLLRHCQYHVTTTNQAQKALELLRENKNKFDLVISDVDMPDMDGFKLLELVGLEMDLPVIMLSAHSDPKYVMKGVTHGACDYLLKPVRIEELKNIWQHVVR
notes: range 1-134; Fused to a YFP fragment for BiFC; also called receiver domain of ARR12
binding result (KISS ME DEADLY 1 (KMD1) [5]): binds

B3: OsKMD2 (other)
chain: MGYNELIPGLPEEVARECLIRVGFDQLPAVRRISRQWKAEVESPAYNRLRKAEGLARPALALVQARRELAEAGPAADKQSSAGGVPGNSYRMVLLDPAEGRWTPLPEVGGASGSLPLFCQVAAVDGGVEGRKRLVVVGGWDPETWAPTDSVLVYDFLTGAWRRGAAMPGPRRSFFACAAVGGKVFVAGGHDEEKNALRSALAYDPDADAWAALPDMAEERDEPRGLCVDGKFLVVGGYPTPAQGRFVGSAEWFDPATSTWSAVQEGFVDDGACPRTCSAAPEAGDRMYMLRDGHLVARHGAISSAPAAWRPVAPVPEDARTAAAVSVIPDGRVVVIGSDCHGGDQTVYTLREEAGKPASWARAPAPPEFSGHVQAACLLEI
notes: Tested in yeast two-hybrid; The fusion partner (LexA bait as for the Arabidopsis KMDs) is not restated for OsKMD2; also called rice KMD2; Os06g39370
binding result (ARR12 [6]): binds

B4: phosphotransfer protein AtAHP2 (other, Arabidopsis, UniProt Q9ZNV8 1-156, looked up)
chain: MDALIAQLQRQFRDYTISLYQQGFLDDQFTELKKLQDDGSPDFVSEVLSLFFEDCVKLISNMARALDTTGTVDFSQVGASVHQLKGSSSSVGAKRVKTLCVSFKECCEAKNYEGCVRCLQQVDIEYKALKTKLQDMFNLEKQIIQAGGIVPQVDIN
notes: Positive control in the yeast two-hybrid test with AtARR12; construct not described
binding result (ARR12 [7]): binds

B5: ARR4 (type-A ARR) (other, Arabidopsis, UniProt O82798 1-259, looked up)
chain: MARDGGVSCLRRSEMMSVGGIGGIESAPLDLDEVHVLAVDDSLVDRIVIERLLRITSCKVTAVDSGWRALEFLGLDNEKASAEFDRLKVDLIITDYCMPGMTGYELLKKIKESSNFREVPVVIMSSENVLTRIDRCLEEGAQDFLLKPVKLADVKRLRSHLTKDVKLSNGNKRKLPEDSSSVNSSLPPPSPPLTISPESSPPLTVSTESSDSSPPLSPVEIFSTSPLSSPIDDEDDDVLTSSSEESPIRRQKMRSPGLD
notes: Prey in yeast two-hybrid
binding result (KISS ME DEADLY 1 (KMD1) [8]): no binding
binding result (KISS ME DEADLY 3 (KMD3) [9]): no binding
binding result (KISS ME DEADLY 2 (KMD2) [10]): no binding
binding result (KISS ME DEADLY 4 (KMD4) [11]): no binding

B6: ARR7 (type-A ARR) (other, Arabidopsis, UniProt Q9ZWS7 1-206, looked up)
chain: MAVGEVMRMEIPAGGDLTVTTPELHVLAVDDSIVDRKVIERLLRISSCKVTTVESGTRALQYLGLDGGKGASNLKDLKVNLIVTDYSMPGLSGYDLLKKIKESSAFREVPVVIMSSENILPRIQECLKEGAEEFLLKPVKLADVKRIKQLIMRNEAEECKILSHSNKRKLQEDSDTSSSSHDDTSIKDSSCSKRMKSESENLFSLL
notes: Prey in yeast two-hybrid
binding result (KISS ME DEADLY 1 (KMD1) [8]): no binding
binding result (KISS ME DEADLY 3 (KMD3) [9]): no binding
binding result (KISS ME DEADLY 2 (KMD2) [10]): no binding
binding result (KISS ME DEADLY 4 (KMD4) [11]): no binding

B7: ARR19 (subfamily-2) (other, Arabidopsis, UniProt Q9M9B9 1-407, looked up)
chain: MLVGKISGYEDNTRSLERETSEITSLLSQFPGNTNVLVVDTNFTTLLNMKQIMKQYAYQVSIETDAEKALAFLTSCKHEINIVIWDFHMPGIDGLQALKSITSKLDLPVVIMSDDNQTESVMKATFYGACDYVVKPVKEEVMANIWQHIVRKRLIFKPDVAPPKPRMTWSEVFQPVQSHLVPTDGLDRDHFDSITINGGNGIQNMEKKQGKKPRKPRMTWTEELHQKFLEAIEIIGGIEKANPKVLVECLQEMRIEGITRSNVASHLQKHRINLEENQIPQQTQGNGWATAYGTLAPSLQGSDNVNTTIPSYLMNGPATLNQIQQNQYQNGFLTMNNNQIITNPPPPLPYLDHHHQQQHQSSPQFNYLMNNEELLQASGLSATDLELTYPSLPYDPQEYLINGYNYN
binding result (KISS ME DEADLY 3 (KMD3) [12]): no binding
binding result (KISS ME DEADLY 4 (KMD4) [13]): no binding
